Results published in article PMC11783875.
One block for each molecule: values may come before it.

Legend:
[1] = molecular target: E69QE173Q-PsbS (Arabidopsis thaliana); experiment: cross-linking; isolated thylakoids (60 ug Chl) in the recovery-1 state (darkness after illumination); 0.1 mM DTSSP for 1 min in reaction buffer pH 8.0; SDS-PAGE and western blot with PsbS antibody; densitometry of dimer against total PsbS
[2] = molecular target: E69QE173Q-PsbS (Arabidopsis thaliana); experiment: cross-linking; isolated thylakoids (60 ug Chl) in the dark-adapted state; 0.1 mM DTSSP for 1 min in reaction buffer pH 8.0; SDS-PAGE and western blot with PsbS antibody; densitometry of dimer against total PsbS
[3] = molecular target: E69QE173Q-PsbS (Arabidopsis thaliana); experiment: cross-linking; isolated thylakoids (60 ug Chl) in the recovery-2 state (darkness after illumination); 0.1 mM DTSSP for 1 min in reaction buffer pH 8.0; SDS-PAGE and western blot with PsbS antibody; densitometry of dimer against total PsbS
[4] = molecular target: E69QE173Q-PsbS (Arabidopsis thaliana); experiment: cross-linking; isolated thylakoids (60 ug Chl) in the light state (700 umol photons m^-2 s^-1); 0.1 mM DTSSP for 1 min in reaction buffer pH 8.0; SDS-PAGE and western blot with PsbS antibody; densitometry of dimer against total PsbS
[5] = molecular target: H3-PsbS (PsbS with the H3 motif I74, Y75, E76 deleted) (Arabidopsis thaliana) (UniProt Q9XF91); experiment: cross-linking; isolated thylakoids (60 ug Chl) in the recovery-2 state (darkness after illumination); 0.1 mM DTSSP for 1 min in reaction buffer pH 8.0; SDS-PAGE and western blot with PsbS antibody; densitometry of dimer against total PsbS
[6] = molecular target: H3-PsbS (PsbS with the H3 motif I74, Y75, E76 deleted) (Arabidopsis thaliana) (UniProt Q9XF91); experiment: cross-linking; isolated thylakoids (60 ug Chl) in the light state (700 umol photons m^-2 s^-1); 0.1 mM DTSSP for 1 min in reaction buffer pH 8.0; SDS-PAGE and western blot with PsbS antibody; densitometry of dimer against total PsbS
[7] = molecular target: T1, PsbS protein (wild type, Arabidopsis thaliana) (Arabidopsis thaliana (endogenous in wild-type thylakoids)), Q9XF91; experiment: as above; conditions: remark: other sources report otherwise
T1 chain: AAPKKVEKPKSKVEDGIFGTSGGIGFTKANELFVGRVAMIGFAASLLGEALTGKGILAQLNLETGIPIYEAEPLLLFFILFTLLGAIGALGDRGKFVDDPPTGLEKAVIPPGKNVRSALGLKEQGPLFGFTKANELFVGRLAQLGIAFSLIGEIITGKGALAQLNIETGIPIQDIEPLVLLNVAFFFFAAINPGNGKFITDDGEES

[8] = molecular target: T1, PsbS protein (wild type, Arabidopsis …); experiment: cross-linking; isolated thylakoids (60 ug Chl) in the dark-adapted state; 0.1 mM DTSSP for 1 min in reaction buffer pH 8.0; SDS-PAGE and western blot with PsbS antibody; densitometry of dimer against total PsbS; conditions: remark: other sources report otherwise
[9] = molecular target: T1, PsbS protein (wild type, Arabidopsis …); experiment: cross-linking; isolated thylakoids (60 ug Chl) in the recovery-1 state (darkness after illumination); 0.1 mM DTSSP for 1 min in reaction buffer pH 8.0; SDS-PAGE and western blot with PsbS antibody; densitometry of dimer against total PsbS; conditions: remark: other sources report otherwise
[10] = molecular target: T1, PsbS protein (wild type, Arabidopsis …); experiment: cross-linking; isolated thylakoids (60 ug Chl) in the recovery-2 state (darkness after illumination); 0.1 mM DTSSP for 1 min in reaction buffer pH 8.0; SDS-PAGE and western blot with PsbS antibody; densitometry of dimer against total PsbS; conditions: remark: other sources report otherwise

cross-linked PsbS dimer content relative to total PsbS [1]: 21.4%
cross-linked PsbS dimer content relative to total PsbS [2]: 21.7%
cross-linked PsbS dimer content relative to total PsbS [3]: 25.6%
cross-linked PsbS dimer content relative to total PsbS [4]: 18.6%
Molecule: E69QE173Q-PsbS (natural protein)

total recovery to PsbS dimers, percent of the WT level (% of the WT level) [5]: 62.6
dimer-to-monomer transition, percent lower than the WT (% lower than WT) [6]: 50.8
Molecule: H3-PsbS (PsbS with the H3 motif I74, Y75, E76 deleted) (from UniProt Q9XF91 60-265) (natural protein)

cross-linked PsbS dimer content relative to total PsbS [7]: 31.7%
cross-linked PsbS dimer content relative to total PsbS [8]: 44.9%
cross-linked PsbS dimer content relative to total PsbS [9]: 39.5%
cross-linked PsbS dimer content relative to total PsbS [10]: 50.4%
B1: PsbS protein (wild type, Arabidopsis thaliana), Q9XF91 60-265 (natural protein)
chain: T1 chain
